# Measurements from a protein production outcome set (Wang et al. 2014).
# Experiment: label from the status in PepcDB records
row,Sequence,protein production
1,MGHHHHHHSHMVDRLQSEPESIRKWREEQMERLEALDANSRKQEAEWKEKAIKELEEWYARQDEQLQKTKANNRVADEAFYKQPFADVIGYVTNINHPCYSLEQAAEEAFVNDIDESSPGTEWERVARLCDFNPKSS,not failed
2,MGHHHHHHSHMVTHSKFPAAGMSRPLDTSLRLKTFSSKSEYQLVVNAVRKLQESGFYWSAVTGGEANLLLSAEPAGTFLIRDSSDQRHFFTLSVKTQSGTKNLRIQCEGGSFSLQSDPRSTQPVPRFDCVLKLVHHYMPPPGAPSFPSPPTEPSSEVPEQPSAQPLPGSPPRRAYYIYSGGEKIPLVLSRPLSSNVATLQHLCRKTVNGHLDSYEKVTQLPGPIREFLDQYDAPL,failed
3,MGHHHHHHSHSEVAIKIDFDFAPGSFDDQYQGCSKQVMEKLTQGDYFTKDIEAQKNYFRMWQKAHLAWLNQGKVLPQNMTTTHAVAILFYTLNSNVHSDFTRAMASVARTPQQYERSFHFKYLHYYLTSAIQLLRKDSIMENGTLCYEVHYRTKDVHFNAYTGATIRFGQFLSTSLLKEEAQEFGNQTLFTIFTCLGAPVQYFSLKKEVLIPPYELFKVINMSYHPRGNWLQLRSTGNLSTYNCQLLKASSKKC,failed
4,MGHHHHHHSHSKKPYIVTIACTKGGSAKSTNAANIGAFCADHGLRTLLIDTDTQPTLSSYYSLAKTAPGGIYEFLLQRDVEPSHIVSQTSIKNLDLIQSNDPSNNVSHMLRNAPDGSIRFSHLIKSINNYDVIVIDTRGTRDITVDMSVLAADILFCPILPQILSAKEFIRGTIGMYQDLQTFESFGFKLPPLKAIANGVDNTNDVKFVMQKLHTLFANTFDESKTLLDFSIPYHVAYREAVTYALPVYRHSAVEYPVMQQLCC,failed
5,MGHHHHHHSHSSEVNATEEMSTLVNYIEPVKFKSFEAARKRNKCFEMSSFVETKAMEQLTKSPMEFVEYNKQQLSRIYPKGTRVDSSNYMPQLFWNVGCQLVALNFQTLDVAMQLNAGVFEYNGRSGYLLKPEFMRRPDKSFDPFTEVIVDGIVANALRVKVISGQ,failed
6,MGHHHHHHSHVAKVSQREEMVKKCLGELTEVCKSLGKVFGVHYFNIFNTVTLKKLAESLSSDPEVLLQIDGVTEDKL,failed
7,MGHRHQFGHGRRGGALMERALIIGASGWGREVLEQMRGDAGHGKDWLIGGFLDSRTNILDSYGVDTPIIGDPMNYLPQPDDVFVCAMGNPYDRHRYALPILQKGGRFIPICTDVRLGRRVHFGQGCFFGLMVHSGPDVRIGDFVTIHAQSMLGHDVRIGDYVHVGAMAFMGGGVQLGDFVTVHPRATLMPGVKVGDGAVIGAGAVVLKDVPAGATVFGNPAKIVFNKNIPTD,failed
8,MGIFEPFRAIGYITSTVPFSVQRLGTETFVTVSVGKAFQIYNCAKLNLVIISPQLPKKIRALASYRDYTFVAFGNEIAVFRRAHQVATWSKHVAKVDLLLVFGEHVLSLDVEGNMFIWAFKGIEEHLAPIGNLQLTGKFTPTSIVHPDTYLNKVLVGSQEGPLQLWNINTKKMLYQFKGWGSSVTSCVSSPALDVVAIGCADGKIHVHNIKLDEEIVTFEHASRGAVTALSFSTDGRPLLASGGSFGVISIWNLNKKRLQSVIRDAHDSSIISLNFLANEPVLMSASADNSLKMWIFDTNDGDPRLLRFRSGHSAPPLCIRFYSNGRHILSAGQDRAFRLFSVIQEQQSRELSQRHISRRAKKLRLKEEELKLKPVVSFDCAEIRERDWCNVVTCHMDTAEAYVWRLQNFVLGEHILKPCPENPTPIKACAISACGNFAVVGTAGGWIERFNLQSGISRGSYFDMSEKRRYAHDGEVIGVACDSTNTLMISAGYHGDLKVWDFKKRELKSQWDVGCSLVKIVYHRVNGLLATVADDFVIRLYDVVTLKMVREFRGHTDRITDLCFSEDGKWVISSSMDGSLRIWDVILAKQIDGVHVDVPITALSLSPNMDVLATAHSDQNGVYLWVNQSMFSGLPSVESYASGKDVVNVKLPSVSALTSSEADDDMDRQVLENSEALQASSFSISQKQIPELVTLSLLPKSQWQSLINLDIIKARNKPIEPPKKPEKAPFFLPSIPSLSGDILFKANDSEADGENEENNKKDQNSMKNFDALESPFSKHLKSSWDSKHFLDFTNYMKSLSPSALDMELRMLEIIDEDVEEELIKRPEFILIGQLLDYFINEVSCKNDFEFMQAVVKLFLKIHGETIRCHPSLQEKAKKLLETQSLVWQKMEKLFQSTRCIVTFLSNSQF,failed
9,MGIKEKEIELETLKREIAQAEASLEQDFIKYMVDKTNEKVEDLFFSNKPEFYRFVFTEQNNYLREKLTDKVGRAMDLSDEIQRDKTENESLENGTKFKKRFVFELQNDLIFLRTKRNTYSAKTEHENFQERLLAAKDTFRLIKANDFKTKIYPYQITLRLKTKHIIVFRWLKKEIIKRFVKKDLFTETLSIKITDKKGQKYALIANYNHASDIIELMLDDKTYTTTLYYQKPLFDLIKNSNFNLTIKDNTLEINQAKKRLFV,failed
10,MGIKQYSQEELKEMALVEIAHELFEEHKKPVPFQELLNEIASLLGVKKEELGDRIAQFYTDLNIDGRFLALSDQTWGLRSWYPYDQLDEETQPTVKAKKKKAKKAVEEDLDLDEFEEIDEDDLDLDEVEEELDLEADDFDEEDLDEDDDDLEIEEDIIDEDDEDYDDEEEEI,failed
11,MGIKQYSQEELKEMALVEIAHELFEEHKKPVPFQELLNEIASLLGVKKEELGDRIAQFYTDLNIDGRFLALSDQTWGLRSWYPYDQLDEETQPTVKAKKKKAKKAVEEDLDLDEFEEIDEDDLDLDEVEEELDLEADDFDEEDLDEDDDDLEIEEDIIDEDDEDYDDEEEEIK,not failed
12,MGILDKVKNLLSQNADKVETVINKAGEFVDEQTQGNYSDAIHKLHDAASNVVGMSDQQS,not failed
13,MGIRNSKTFTSTDIATYYDVSEDHYMYFWDLNQSHSLHYGYWDASTKTFREALANINRVLAEKASITAGTRVLDAGCGVGGSSIWLAKNKQANVTGITVSKKQAARANTSAAAVNPGGTAVFDVQDYTNTPYHSESFDVVWAIESVCHAANKEDFIKEAYRLLKPGGQLIMADFFIVKDGNADDQRSIDAWGHGWAVPFFEKKDAFQHMLLKAGFNTADMIDSTEHIRRSAKRLYYAFFPGWIISKLYNLVNRRTTEFSKNNVYTAYYQYKTLKKELWKYYIVHAKK,failed
14,MGISVASSNKPNNYDRYFNIYGVVIAAVLAAIAAIEIFEIFELPFEKYFAGIDIASIFSFTTKVVSDSSYVGIFILMTLESMFIPIPSEVILPLSGFLVYQGSFNFAVVLADTIIASMVGSFIDYFLGLYLGRPIIVKILSYFSISEDSLSRAETWIDKMGSFSVFLARFIPGIRSLISLPAGMLKMKMWLFALMTFLGSFIWSFSLIYLGYSAGPYWSVAVKNFSALLDQIIIDVVFLASLAYIFYYIFLKIKRRQHALD,failed
15,MGKIMEWAARSDHLGGIPRNTVIMAVSAFAKAVANLCNKSSVHNADTLMNLVQSRPPGVPLITVSNHMSTLDDPVMWGAFKGLLSLDPELARWVLAAEDICFRNPIFSYIFRTGKCIPITRGGGIYQENMNEALQRLKDGSWLHTFPEGKVFQDDVPIRRLKWGTASLIARSPVTPIVLPIIHRGFEEMMPENYNNGRRPLVPLPNKHLKVVVGEPIEFDVPMMVETAVLDSRHVTPPLQEVKWPVLTSAGQVLDETAQRHLYIALSEKIQSSLETLRLLAKRL,failed
16,MGKKELKRGLVVDREAQMIGVYLFEDGKTYRGIPRGKVLKKTKIYAGDYVWGEVVDPNTFAIEEVEERKNLLIRPKVANVDRVIIVETLKMPEFNNYLLDNMLVVYEYFKVEPVIVFNKIDLLNEEEKKELERWISIYRDAGYDVLKVSAKTGEGIDELVDYLEGFICILAGPSGVGKSSILSRLTGEELRTQEVSEKTERGRHTTTGVRLIPFGKGSFVGDTPGFSKVEATMFVKPREVRNYFREFLRYQCKYPDCTHTNEPGCAVKEAVKNGEISCERYKSYLKIIKVYLEEIKELCRED,not failed
17,MGKKQKMKKAAQMATAAEKLKTAAEKSKTAADNVVAKEKPAEEASPSPSGSGKKGKPKATQKPNVAKALQKEISSSEDALDVKNKPPAGFSGAKGKPHIMGQMDPAYRNKIKKLMSLAKQLPPNVFSLPNSQKEEGASAAKSCVVEDDQSTDSDDAPDLVEADPKETQPDEQGQLGTVAVRTREVSKQSRGERKARRILMKLDLKPMENVARVTMKKGKNILLYIDQPDVYRVAHSSTYIFFGEICVEDTSTTSVASQAAVKAAERFRGTSPAGRQGNEDGKAPGEESPHDDDDDENDGEDADAMGLHAKDIELVQMQAACSRKKAIQALLKNDNDVVNAIMALTVG,failed
18,MGKLLFVDIGGTLLDYSNEVPRSAVDAIRKARAKGHRVYLSSGRSSAEVTSQLWDIGVDGLIGANGGYVESAQESVFHRRLSGEETRHIVEWLYNRGLEFYLESNNGLYASRGFREASKPVLSRLSEKTDVTVDSMYPDMFWGASLDRDDVNKISYIFNSQEDLDAAREAFPNLEHTTWGGQTGALFGTIGVSVNKKIGVDRLLKYLNADRANTIAFGDSDEDLSLFEASAYGVAMGEATESLKAAADLVTDAVGQDGLRNAFLKLELIDA,failed
19,MGKQESEKTVTGSDGSGRYERKALIDKLYETQELSREEWIRLIEGRTPELSEYLFEKARAVREREYGKAVYIRGLIECSNYCRNNCYYCGIRRGNQNAQRYRLTADEILSCCENGYSLGFRTFVLQGGEDPAMTDGWVADVIRRIKKEFPDCAVTLSLGEKSEAAYQCLFDAGADRYLLRHETADADHYGKLHPDGLSLAHRMECLRTLKRIGFQTGCGFMVGSPGQTPECLAKDMAFIRELNPQMVGIGPFIPQHDTPFRDERAGAFEETLWLLGLIRLMLPRVLLPATTALGTIHPKGRELGMLAGANVVMPNLSPLGVRKKYLLYDNKICTGDEAAESLNSLKESMKAIGYEVAVGRGDYRL,failed
20,MGKRLYAVAYDIPDDTRRVKLANLLKSYGERVQLSVFECYLDERLLEDLRRRARRLLDLGQDALRIYPVAGQVEVLGVGPLPELREVQVL,not failed
21,MGKRMLSMFHPFEIALCGLSGSGKTTLLEKLIRRFSTDGFEVAAFKHGCHRFDIDREGKDSDRFRRAGAVPVLIVDREKEALISSGTGRLDIAGLTLNADLLFIEGFKELPVPKVLLIDERREILPSLESGAIPEVLALAHDGDAEDMERFGLPLFHRDDVARISDFSAEFFRRAAQSVPLNGLVLAGGRSLRMGRDKAQLRYHEASQLDRTAALLGGVCNEVFISCRSDQLDQYSDARLPGIADSYLDLGPLGGLLSAQRHAPGAAWLVAACDLPFIDEAVIAALRAGRHPFRFGTAFAGSDGRPEPLLAIYEPKSRRRLLERHASGNDSLRAFLMNSRVQFIEPNDASKLRNVNDPAAMDDALRAISKGGQLEHHHHHH,failed
22,MGKTLTGFHLKVIGVISMVFDHLLQFFSFLGVPGWFGWIGRIAAPIFLFESSEGFIHTSNRRKYMFRLLLGFWIMGILNGFLNAYFSTGGLIINNIFGTLFLGTVYMQSMDYFKQKQIGKGLLWFIVPLLISALPLVVFSSPDILSNPAILIGFQIFNLIVPSLMMTEGGFLFVLLAVAFYLFHGKKWLQISAIGVVALISAASYNFQELFGVNHQWMMILAAIPIVLYNGEKGRGMRNFFYIFYPAHIAIFAIISFFMQR,failed
